In the supplement of paper PMC12042874:
± gives the uncertainty stated by the source.

Assay: amyloid nucleation score (Sup35N fusion, yeast selection) (log enrichment); library NNK1; higher = more nucleation; inactive = no reads after selection
How it was run: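 Libraries of peptides of 20 random codons fused to Sup35N were expressed in psi-negative yeast and induced 24 hours with 100 μM copper sulfate. Selection was 7 days at 30°C on medium lacking adenine and uracil, and plasmid inserts were Illumina-sequenced before and after selection. Nucleation score is the DiMSum log enrichment of output over input reads, centred on the mode score of non-aggregating sequences, and sequences with under 100 input reads were left out.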
In the case of VLMMVLGRWDTSSVMFIMMV, the amyloid nucleation score is reported as 0.343 ± 0.97.
VLPLQKPRDVGSVISARQWG gave an amyloid nucleation score of 0.837 ± 0.53.
VLPRVWCCNADNDSIVDFRG showed an amyloid nucleation score of 2.35 ± 0.097.
In the case of VLRQMS, the amyloid nucleation score is reported as 1.67 ± 0.19.
VLRWLRKRSFSI gave an amyloid nucleation score of -0.076 ± 0.6.
With VLSEVDWLSIFHGWMFGVRC the amyloid nucleation score was 0.434 ± 1.4.
VLSPFTVKIDIKSKISVLGP gave an amyloid nucleation score of 4.11 ± 0.15.
VLSPKSNIGDMSLIFMNTAA gave an amyloid nucleation score of 0.54 ± 0.79.
VLSRIHCCRTPVDNGFRPQG showed an amyloid nucleation score of -0.95 ± 0.94.
With VLTLSTKLCLHRGGWTTKPT the amyloid nucleation score was 4.2 ± 0.068.
Substance VLTTS has an amyloid nucleation score of -0.086 ± 0.26.
In the case of VLVHKDSG, the amyloid nucleation score is reported as -0.852 ± 0.71.
VLVMVEFTMLEALWRCLAVG showed an amyloid nucleation score of -0.297 ± 0.5.
With VMCAT the amyloid nucleation score was -0.048 ± 0.59.
For VMFTTRSWSGDNVFLCV, the amyloid nucleation score was “inactive”.
In the case of VMLGGSPHMPIAN, the amyloid nucleation score is reported as 0.047 ± 0.41.
With VMNENI the amyloid nucleation score was “inactive”.
With VMTWHL the amyloid nucleation score was -0.73 ± 0.45.
VMVFGSMPVDDLLHFWLECY showed an amyloid nucleation score of -0.102 ± 0.42.
Substance VNASELEYKFTLLVQWMIRR has an amyloid nucleation score of 1.31 ± 0.32.
For VNEIRT, the amyloid nucleation score was -0.153 ± 1.2.
VNGTG gave an amyloid nucleation score of -0.252 ± 0.97.
For VNLRCRSTLEGSN, the amyloid nucleation score was -0.077 ± 0.31.
VNLYGVLMGSLLGGQRQHDV showed an amyloid nucleation score of -1.1 ± 1.9.
VNMNELRNNRLSSVVFLVVG gave an amyloid nucleation score of 2.09 ± 0.21.
VNQDAGDMKSVRKRAMTRLC showed an amyloid nucleation score of 1.06 ± 0.56.
With VNSTMVPRVLME the amyloid nucleation score was 0.935 ± 0.69.
VNSVWNGNR showed an amyloid nucleation score of -0.218 ± 0.71.
VPCGKLIISGGVQNCIYYWE gave an amyloid nucleation score of 7.306 ± 0.056.
Work on VPCNYKGSLSGRRYLSAKQS yielded an amyloid nucleation score of 0.011 ± 0.34.
For VPLGSDSNHNANVTCYFASA, the amyloid nucleation score was -0.078 ± 0.37.
VPNEYGNSEVRLLDLLGDLE showed an amyloid nucleation score of -0.435 ± 0.36.
Work on VPRYGTLEGANESDLFGW yielded an amyloid nucleation score of 0.282 ± 0.78.
In the case of VPSLSPFGRKMFHIRSL, the amyloid nucleation score is reported as “inactive”.
For VPTVCYFSNQVR, the amyloid nucleation score was -0.434 ± 0.33.
VPVLLNARIRI showed an amyloid nucleation score of -1.1 ± 0.81.
With VQCFLAQRSVDSGATELIIV the amyloid nucleation score was 0.114 ± 0.59.
Substance VQCVHLSNME has an amyloid nucleation score of 0.105 ± 0.72.
VQDVYENFSSPQNIGVMRAS showed an amyloid nucleation score of 0.956 ± 0.81.
VQRELFLVLHHTSVGRGSAP gave an amyloid nucleation score of 1.08 ± 0.24.
Work on VQYNLTCNYY yielded an amyloid nucleation score of 4.01 ± 0.14.
VRADFALTWLLGVCRVWCCR gave an amyloid nucleation score of 0.247 ± 0.36.
With VRAPRSVWRSFAAA the amyloid nucleation score was -0.107 ± 0.59.
With VRECRSMERTTHQVCTWGGA the amyloid nucleation score was 0.078 ± 1.4.
Substance VRGVSVGSYKSVAELGGTQT has an amyloid nucleation score of -0.449 ± 1.3.
With VRHTQHRSSL the amyloid nucleation score was -1.62 ± 1.3.
VRISWRGGGPLSCDVCACMT showed an amyloid nucleation score of 0.479 ± 1.2.
VRLFLCFARSMDVRYFILVG showed an amyloid nucleation score of 0.459 ± 0.57.
VRNWWDDNYSFTHAYLSTDG gave an amyloid nucleation score of 1.01 ± 0.66.
Work on VRRDQDRPFSTMRQGLRFGH yielded an amyloid nucleation score of 0.248 ± 0.31.
Work on VRTLRTLAGLRRLLINKS yielded an amyloid nucleation score of -0.137 ± 0.54.
VRVMILHLSDILYYLWYGTI showed an amyloid nucleation score of 5.22 ± 0.078.
With VRYMSLWGIVSRVCGIRMER the amyloid nucleation score was 1.23 ± 0.56.
Work on VSCSDSMAFPSKSCF yielded an amyloid nucleation score of 0.712 ± 0.34.
VSEFGFIVF showed an amyloid nucleation score of -0.315 ± 0.76.
VSKRFRFLRTLFIEECDLRH gave an amyloid nucleation score of 0.576 ± 0.32.
For VSLYM, the amyloid nucleation score was 0.924 ± 0.97.
VSQVVCGMSYFGDCAIRQES showed an amyloid nucleation score of 0.153 ± 0.5.
Substance VSRMP has an amyloid nucleation score of 3.21 ± 0.12.
For VSSLWFKDYQYVFDDCYAKP, the amyloid nucleation score was -0.258 ± 0.56.
VSSTYNSFRFVSLGKFNHHC showed an amyloid nucleation score of 2.71 ± 0.17.
In the case of VSTCAAR, the amyloid nucleation score is reported as -0.383 ± 0.95.
Work on VSTNSDSLLGNCRKNPVHPS yielded an amyloid nucleation score of 1.03 ± 0.79.
For VSTSLGHLVDWGKSM, the amyloid nucleation score was “inactive”.
VSVFLHAVITDPS gave an amyloid nucleation score of 1.9 ± 0.46.
Substance VSVFNAQFIDRRGCR has an amyloid nucleation score of 5.16 ± 0.063.
Work on VSVQMAGIF yielded an amyloid nucleation score of -0.863 ± 0.54.
Substance VSVSRGRTFSFSIGSYRIGR has an amyloid nucleation score of 3.11 ± 0.091.
With VSVTLLFFTVPIQGRVMQFS the amyloid nucleation score was 0.148 ± 0.29.
Substance VSYRTSMSVVLRCGFYCSAY has an amyloid nucleation score of 3.22 ± 0.14.
With VSYSGQSLICYWVLEASFVV the amyloid nucleation score was -0.05 ± 0.31.
VTCWPDICRSFYMIVLHCFR gave an amyloid nucleation score of 0.141 ± 0.7.
